Reference: the RNAGym collection of RNA variant scans (doi:10.1093/nar/gkz1192)

B1: CPEB3 Ribozyme (parent)
chain: UAACAGGGGGCCACAGCAGAAGCGUUCACGUCGCAGCCCCUGUCAGAUUCUGGUGAAUCUGCGAAUUCUGCUGUAUAUCUC

Variants of: B1
Assay: self-cleavage, relative activity (ratio to wild type); higher = more cleavage; in vitro, sequencing
Method in brief: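 For each CPEB3 ribozyme variant, relative activity is its cleaved/total read fraction divided by the unmutated ribozyme's. Barcoded error-prone PCR libraries were transcribed by T7 RNA polymerase (5 hours, 37°C) and held in DNase I for 15 min before an EDTA stop, with cleavage occurring throughout. Template-switching reverse transcription and Illumina sequencing were used to read the RNAs. A 5-read minimum applied, and results are the mean of three batches.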

Compared with UAACAGGGGGCCACAGCAGAAGCGUUCACGUGGCAGCCCCUGCCAGAUUCUGGUGAAUCUGCGAAUUCUGCUGUAUAUCUC, UAACAGGGGGCCACAGCAGAAGCGUUCACGUAGCAGCCCCUGUCAGAUACUGGUGAAUCUGCGAAUUCUGCUGUAUAUCUC is lower in self-cleavage: 0.37 for the first, 0.11 for the second.

Compared with UAACAGGGGGCCACAGCAGAAGCGUUCACGUAGCAGCCCCUGUCAGAUCCUGGUGAAUCUGCGAAUUCUGCUGUAUAUCUC, UAACAGGGGGCCACAGCAGAAGCGUUCACGUGGCAGCCCCUGUCAGAUUCUGGUGAAUCUGCGAAUUCUGCCGUAUAUCUC is lower in self-cleavage: 0.15 for the first, 0.11 for the second.

Compared with UAACAGGGGGCCACAGCAGAAGCGUUCACGUGGCAGUCCCUGUCAGAUUCUGGUGAAUCUGCGAAUUCUGCUGUAUAUCUC, UAACAGGGGGCCACAGCAGAAGCGUUCACGUGGCAGCCCCUGUCAGAUUCUGGUGAAUCUGCGAAUUCUGCUGUAUUUCUC is lower in self-cleavage: 0.31 for the first, 0.2 for the second.

Going from UAACAGGGGGCCACAGCAGAAGCGUUCACGUAGCAGCCCCUGUCAGAUUCUUGUGAAUCUGCGAAUUCUGCUGUAUAUCUC to UAACAGGGGGCCACAGCAGAAGCGUUCACGUAGCAGCCCCUGUCAGAUUCUCGUGAAUCUGCGAAUUCUGCUGUAUAUCUC, the self-cleavage falls from 0.13 to 0.1.

Going from UAACAGGGGGCCACAGCAGAAGCGUUCACGUAGCAGCCCCUGUCAGAUUCUAGUGAAUCUGCGAAUUCUGCUGUAUAUCUC to UAACAGGGGGCCACAGCAGAAGCGUUCACGUAGCAGCCCCUGUCAGAUUCUGGUAAAUCUGCGAAUUCUGCUGUAUAUCUC, the self-cleavage rises from 0.29 to 0.5.

Compared with UAACAGGGGGCCACAGCAGAAGCGUUCACGUGGCAGCCCCUGUCAGAUUCUGGUGAAUCUGCGAAUUCUGCUGUAUACCUC, UAACAGGGGGCCACAGCAGAAGCGUUCACGUAGCAGCCCCUGUCAGAUUCUGGUGAAUCUGCGAAUUCUGCUGUAUACCUC is higher in self-cleavage: 0.09 for the first, 0.2 for the second.

Compared with UAACAGGGGGCCACAGCAGAAGCGUUCACGUAGCAGCCCCUGUCAAAUUCUGGUGAAUCUGCGAAUUCUGCUGUAUAUCUC, UAACAGGGGGCCACAGCAGAAGCGUUCACGUAGCAGCCCCUGUCAGAUUCUGGUGAAUCUGCGAAUUCUGCUCUAUAUCUC is higher in self-cleavage: 0.11 for the first, 0.17 for the second.

Compared with UAACAGGGGGCCACAGCAGAAGCGUUCACGUAGCAGCCCCUGUCAGAUUCUGGUGAAUCUGCGAAUUCUGCUAUAUAUCUC, UAACAGGGGGCCACAGCAGAAGCGUUCACGUAGCAGCCCCAGUCAGAUUCUGGUGAAUCUGCGAAUUCUGCUGUAUAUCUC is lower in self-cleavage: 0.49 for the first, 0.27 for the second.

First: UAACAGGGGGCCACAGCAGAAGCGUUCACGUAGCAGCCCCCGUCAGAUUCUGGUGAAUCUGCGAAUUCUGCUGUAUAUCUC
Second: UAACAGGGGGCCACAGCAGAAGCGUUCACGUGGCAGCCCCUGUCAGAUUCAGGUGAAUCUGCGAAUUCUGCUGUAUAUCUC
The self-cleavage of the first is higher: 0.36 for the first, 0.04 for the second.

Compared with UAACAGGGGGCCACAGCAGAAGCGUUCACGUGGCAGCCCCUGUCAGAUUCUGGUGAAUCUGCGAAUCCUGCUGUAUAUCUC, UAACAGGGGGCCACAGCAGAAGCGUUCACGUGGCAGCCCCUGUCAGAUUCUGGAGAAUCUGCGAAUUCUGCUGUAUAUCUC is higher in self-cleavage: 0.09 for the first, 0.19 for the second.

Compared with UAACAGGGGGCCACAGCAGAAGCGUUCACGUAGCAGCCCCUGUCAGAGUCUGGUGAAUCUGCGAAUUCUGCUGUAUAUCUC, UAACAGGGGGCCACAGCAGAAGCGUUCACGUAGCAGCCCCUGUCAGACUCUGGUGAAUCUGCGAAUUCUGCUGUAUAUCUC is lower in self-cleavage: 0.24 for the first, 0.22 for the second.

Compared with UAACAGGGGGCCACAGCAGAAGCGUUCACGUAGCAGCCCCUGUCAGAUUCUGGUGAAUCUACGAAUUCUGCUGUAUAUCUC, UAACAGGGGGCCACAGCAGAAGCGUUCACGUGGCAGCCCCUGUCAGAUUCUGGUGAAUCUGCGAAUUCUGCUGUAUAUCCC is lower in self-cleavage: 0.19 for the first, 0.08 for the second.

Compared with UAACAGGGGGCCACAGCAGAAGCGUUCACGUGGCAGCCCCUGUCAGAUUCUGGUGAAUCUGCGAAUUCUGCUGUAUAUCAC, UAACAGGGGGCCACAGCAGAAGCGUUCACGUAGCAGCCCCUGUCAGAUUCGGGUGAAUCUGCGAAUUCUGCUGUAUAUCUC is higher in self-cleavage: 0.1 for the first, 0.31 for the second.

Going from UAACAGGGGGCCACAGCAGAAGCGUUCACGUAGCAGCCCCUGUCAGAUUCCGGUGAAUCUGCGAAUUCUGCUGUAUAUCUC to UAACAGGGGGCCACAGCAGAAGCGUUCACGUAGCAGCCCCUGUCAGAUUCAGGUGAAUCUGCGAAUUCUGCUGUAUAUCUC, the self-cleavage falls from 0.29 to 0.24.

Compared with UAACAGGGGGCCACAGCAGAAGCGUUCACGUAGCAGCCCCUGUCAGAUUCUGGUGAAUCAGCGAAUUCUGCUGUAUAUCUC, UAACAGGGGGCCACAGCAGAAGCGUUCACGUGGCAGCCCCUGUUAGAUUCUGGUGAAUCUGCGAAUUCUGCUGUAUAUCUC is lower in self-cleavage: 0.17 for the first, 0.12 for the second.

Compared with UAACAGGGGGCCACAGCAGAAGCGUUCACGUGGCAGCCCCUGUCAGAUUCUGGUGAAUCUGCGAAUUCCGCUGUAUAUCUC, UAACAGGGGGCCACAGCAGAAGCGUUCACGUAGCAGCCCCUGUCAGAUUCUGGUGAAUCUGCGAAUUUUGCUGUAUAUCUC is lower in self-cleavage: 0.44 for the first, 0.22 for the second.

First: UAACAGGGGGCCACAGCAGAAGCGUUCACGUGGCAGCCCCUGUCAGAUUCUGGUGGAUCUGCGAAUUCUGCUGUAUAUCUC
Second: UAACAGGGGGCCACAGCAGAAGCGUUCACGUAGCAGCCCCUGUCAGAUUCUGGUGAAACUGCGAAUUCUGCUGUAUAUCUC
The self-cleavage of the first is lower: 0.12 for the first, 0.37 for the second.
